Target: Human ALCAM (28–501)-6xhistidine tag (human) (UniProt Q13740)
Test: ELISA; competition with CD6-Fc

Chain of Human ALCAM (28–501)-6xhistidine tag (human) (Q13740 28-501): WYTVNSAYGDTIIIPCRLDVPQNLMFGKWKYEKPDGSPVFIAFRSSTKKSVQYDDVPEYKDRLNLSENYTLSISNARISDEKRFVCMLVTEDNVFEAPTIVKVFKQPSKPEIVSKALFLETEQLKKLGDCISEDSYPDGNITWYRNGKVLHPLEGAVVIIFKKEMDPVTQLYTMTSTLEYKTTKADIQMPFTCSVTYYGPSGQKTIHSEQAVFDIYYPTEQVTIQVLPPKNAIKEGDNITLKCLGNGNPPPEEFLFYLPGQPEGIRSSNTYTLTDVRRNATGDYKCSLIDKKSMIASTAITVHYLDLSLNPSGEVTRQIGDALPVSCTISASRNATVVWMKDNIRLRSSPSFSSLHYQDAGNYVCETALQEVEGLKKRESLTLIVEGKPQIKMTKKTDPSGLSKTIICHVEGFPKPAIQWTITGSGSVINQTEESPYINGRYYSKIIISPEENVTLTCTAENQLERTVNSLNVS

## mini-ab V2D7 (from UniProt P03069)
  IC50: 5.63 nM

Reference: publication PMC10385607
